From PMC7456325, “Diversity in the intrinsic apoptosis pathway of nematodes” (Communications Biology, 2020)

Legend:
BCL-XLΔC24 = BCL-XLΔC24 (labelled with the NHS RED NanoTemper labelling kit (MO-L001) for MST); assay: MST; Monolith NT.115; protein labelled with NHS RED, unlabelled synthetic peptide diluted in phosphate-buffered saline; 30 min incubation; 25 °C; 40% LED and 40% MST power; three independent experiments, single binding model; conditions: both partners purified
[1] = molecular target: T1, T. suis A ΔC28 (Trichuris suis BCL-2-like protein A, C-terminal truncation) (Trichuris suis, labelled with the NHS RED NanoTemper labelling kit (MO-L001) for MST); assay: as above; conditions: both partners purified
T1 chain: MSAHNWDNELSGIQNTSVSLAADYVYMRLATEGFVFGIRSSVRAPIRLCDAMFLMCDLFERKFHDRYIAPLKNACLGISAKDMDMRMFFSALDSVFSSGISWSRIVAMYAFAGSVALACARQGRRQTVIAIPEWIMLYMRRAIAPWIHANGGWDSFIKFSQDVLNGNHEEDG

Sequence of BCL-XLΔC24 (labelled with the NHS RED NanoTemper labelling kit (MO-L001) for MST) (chain, as listed by the source mutant): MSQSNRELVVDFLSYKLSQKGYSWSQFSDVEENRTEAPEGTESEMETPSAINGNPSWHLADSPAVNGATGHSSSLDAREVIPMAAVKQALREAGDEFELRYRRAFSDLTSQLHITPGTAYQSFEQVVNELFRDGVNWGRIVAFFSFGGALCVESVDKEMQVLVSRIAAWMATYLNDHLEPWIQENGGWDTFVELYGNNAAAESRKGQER

B1: BAK BH3 peptide (peptide)
peptide: PSSTMGQVGRQLAIIGDDINRRYDSE
notes: BH3 domain of BAK; also called BAK BH3 domain; source: synthetic peptide (Mimotopes, Australia, >90% purity)
Kd (BCL-XLΔC24): 0.178 ± 0.034 µM

B2: T. suis protein A BH3 peptide (peptide)
peptide: SVRAPIRLCDAMFLMCDLFERKFHDR
notes: BH3 domain of Trichuris suis BCL-2-like protein A (ID# BCL_199); also called T. suis A BH3 domain peptide; source: synthetic peptide (Mimotopes, Australia, >90% purity)
Kd [1]: > 50 µM

B3: T. suis protein B BH3 peptide (peptide)
peptide: PILPEVNKTALCMRAMGEVFEDRYKT
notes: BH3 domain of Trichuris suis BCL-2-like protein B (ID# BCL_257); also called T. suis B BH3 domain peptide; source: synthetic peptide (Mimotopes, Australia, >90% purity)
Kd [1]: > 50 µM
